Measurements from the supplement of paper PMC9112550, “Optimization of the antimicrobial peptide Bac7 by deep mutational scanning” (BMC Biology, 2022).

System: Escherichia coli TOP10
Test: shrunken log2 fold change of peptide-encoding DNA abundance (4.5 h post-induction vs induction); higher = less antimicrobial activity (less host growth inhibition)
Details: time post-induction: 4.5 h; library: site-saturation at positions 5, 18, 19, 20
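Note: peptides expressed intracellularly from a pBAD plasmid library in pooled LB shake-flask culture, induced with 0.3% L-arabinose, DNA abundance read by NGS, three biological replicates, DESeq2 with apeglm shrinkage.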

| Sequence | shrunken log2 fold change |
| --- | --- |
| RRIRYRPPRLPRPRPRPLWLPRP | 0.0113 |
| RRIRQRPPRLPRPRPRPLMHPRP | -0.00724 |
| RRIRTRPPRLPRPRPRPIMKPRP | -0.253 |
| RRIRDRPPRLPRPRPRPAWFPRP | 0.118 |
| RRIRWRPPRLPRPRPRPQARPRP | 0.19 |
| RRIRIRPPRLPRPRPRPLKDPRP | -0.0958 |
| RRIRARPPRLPRPRPRPECTPRP | 1.05 |
| RRIRNRPPRLPRPRPRPPSCPRP | -0.134 |
| RRIRSRPPRLPRPRPRPSVFPRP | -0.23 |
| RRIRRRPPRLPRPRPRPECEPRP | 0.323 |
| RRIRGRPPRLPRPRPRPFTCPRP | -0.22 |
| RRIRSRPPRLPRPRPRPTQFPRP | 0.212 |
| RRIRTRPPRLPRPRPRPNNTPRP | -0.518 |
| RRIRSRPPRLPRPRPRPFWCPRP | -0.0118 |
| RRIRFRPPRLPRPRPRPGNFPRP | -0.133 |
| RRIRHRPPRLPRPRPRPANSPRP | -0.271 |
| RRIRFRPPRLPRPRPRPQCRPRP | -0.218 |
| RRIRQRPPRLPRPRPRPWNEPRP | -0.139 |
| RRIRIRPPRLPRPRPRPSLIPRP | -0.604 |
| RRIRMRPPRLPRPRPRPLANPRP | 0.235 |
| RRIRRRPPRLPRPRPRPRNVPRP | 0.226 |
| RRIRARPPRLPRPRPRPFHEPRP | -0.166 |
| RRIRSRPPRLPRPRPRPMKHPRP | -0.212 |
| RRIRIRPPRLPRPRPRPNWAPRP | 0.0373 |
| RRIRTRPPRLPRPRPRPPMMPRP | -0.121 |

| Sequence | shrunken log2 fold change |
| --- | --- |
| RRIRFRPPRLPRPRPRPVAAPRP | 1.41 |
| RRIRLRPPRLPRPRPRPFHQPRP | -1 |
| RRIRIRPPRLPRPRPRPEEEPRP | -0.031 |
| RRIRKRPPRLPRPRPRPWPSPRP | 0.0175 |
| RRIRFRPPRLPRPRPRPHCRPRP | -0.0499 |
| RRIRGRPPRLPRPRPRPEQEPRP | 0.0952 |
| RRIRCRPPRLPRPRPRPMICPRP | -0.0738 |
| RRIRQRPPRLPRPRPRPMLSPRP | -0.0514 |
| RRIRIRPPRLPRPRPRPMGWPRP | 0.237 |
| RRIRKRPPRLPRPRPRPIGLPRP | 0.0815 |
| RRIRIRPPRLPRPRPRPAQAPRP | 0.2 |
| RRIRFRPPRLPRPRPRPAIQPRP | -0.102 |
| RRIRTRPPRLPRPRPRPNFQPRP | 0.00569 |
| RRIRPRPPRLPRPRPRPSPCPRP | -0.0121 |
| RRIRTRPPRLPRPRPRPREIPRP | 0.00997 |
| RRIRTRPPRLPRPRPRPHSPPRP | -0.278 |
| RRIRTRPPRLPRPRPRPLLGPRP | -0.185 |
| RRIRDRPPRLPRPRPRPADDPRP | 0.637 |
| RRIRCRPPRLPRPRPRPFYDPRP | -0.826 |
| RRIRLRPPRLPRPRPRPFDSPRP | -0.174 |
| RRIRCRPPRLPRPRPRPMCMPRP | -0.232 |
| RRIRIRPPRLPRPRPRPKGWPRP | 0.364 |
| RRIRSRPPRLPRPRPRPEEEPRP | 1.47 |
| RRIRDRPPRLPRPRPRPTSEPRP | 0.236 |
| RRIRARPPRLPRPRPRPQNHPRP | -0.446 |

| Sequence | shrunken log2 fold change |
| --- | --- |
| RRIRMRPPRLPRPRPRPVIMPRP | -0.101 |
| RRIRSRPPRLPRPRPRPKWEPRP | 0.274 |
| RRIRARPPRLPRPRPRPYKIPRP | -0.455 |
| RRIRIRPPRLPRPRPRPFTHPRP | -0.182 |
| RRIRLRPPRLPRPRPRPGFPPRP | -0.2 |
| RRIRHRPPRLPRPRPRPGQGPRP | -0.104 |
| RRIRQRPPRLPRPRPRPFKAPRP | -0.059 |
| RRIRYRPPRLPRPRPRPQDFPRP | -0.481 |
| RRIRFRPPRLPRPRPRPCTIPRP | -0.15 |
| RRIRVRPPRLPRPRPRPEYNPRP | -0.185 |
| RRIRPRPPRLPRPRPRPYFGPRP | -0.522 |
| RRIRFRPPRLPRPRPRPFQEPRP | -0.00353 |
| RRIRLRPPRLPRPRPRPCTVPRP | -0.0157 |
| RRIRSRPPRLPRPRPRPCFWPRP | 0.294 |
| RRIRLRPPRLPRPRPRPNCTPRP | -0.24 |
| RRIRNRPPRLPRPRPRPNRSPRP | -0.165 |
| RRIRQRPPRLPRPRPRPDINPRP | -0.412 |
| RRIRPRPPRLPRPRPRPCHRPRP | -0.181 |
| RRIRVRPPRLPRPRPRPCNPPRP | -0.182 |
| RRIRMRPPRLPRPRPRPLWLPRP | 0.563 |
| RRIRCRPPRLPRPRPRPRGHPRP | 0.071 |
| RRIRHRPPRLPRPRPRPIVFPRP | -0.103 |
| RRIRRRPPRLPRPRPRPRPKPRP | 1.05 |
| RRIRTRPPRLPRPRPRPTHGPRP | 0.0213 |
| RRIRSRPPRLPRPRPRPWNPPRP | -0.00281 |

| Sequence | shrunken log2 fold change |
| --- | --- |
| RRIRQRPPRLPRPRPRPNLSPRP | -0.258 |
| RRIRQRPPRLPRPRPRPCVKPRP | -0.0496 |
| RRIRNRPPRLPRPRPRPSFTPRP | -0.255 |
| RRIRNRPPRLPRPRPRPIYEPRP | -0.232 |
| RRIRDRPPRLPRPRPRPFFLPRP | -0.261 |
| RRIRSRPPRLPRPRPRPLSPPRP | 0.0487 |
| RRIRIRPPRLPRPRPRPDNEPRP | -0.117 |
| RRIRKRPPRLPRPRPRPRPPPRP | 1.15 |
| RRIRTRPPRLPRPRPRPKQTPRP | 0.204 |
| RRIRNRPPRLPRPRPRPPGIPRP | -0.0351 |
| RRIRERPPRLPRPRPRPCLGPRP | -0.0295 |
| RRIRIRPPRLPRPRPRPGKAPRP | 0.039 |
| RRIRIRPPRLPRPRPRPPFSPRP | -0.245 |
| RRIRFRPPRLPRPRPRPGQPPRP | 0.199 |
| RRIRNRPPRLPRPRPRPSFYPRP | -0.658 |
| RRIRGRPPRLPRPRPRPQQPPRP | 0.423 |
| RRIRARPPRLPRPRPRPSPHPRP | 0.187 |
| RRIRPRPPRLPRPRPRPDDMPRP | 0.0244 |
| RRIRRRPPRLPRPRPRPQRFPRP | 0.294 |
| RRIRKRPPRLPRPRPRPGDHPRP | 0.014 |
| RRIRTRPPRLPRPRPRPLMSPRP | 0.0356 |
| RRIRWRPPRLPRPRPRPHFQPRP | -0.183 |
| RRIRWRPPRLPRPRPRPFEHPRP | -0.113 |
| RRIRCRPPRLPRPRPRPNAFPRP | 0.0246 |
| RRIRGRPPRLPRPRPRPNDIPRP | -0.528 |

| Sequence | shrunken log2 fold change |
| --- | --- |
| RRIRARPPRLPRPRPRPKDRPRP | 0.145 |
| RRIRDRPPRLPRPRPRPHNCPRP | 0.0686 |
| RRIRGRPPRLPRPRPRPQVCPRP | 2.63e-05 |
| RRIRVRPPRLPRPRPRPCFMPRP | -0.302 |
| RRIRPRPPRLPRPRPRPRIMPRP | -0.0771 |
| RRIRNRPPRLPRPRPRPGWIPRP | -0.265 |
| RRIRYRPPRLPRPRPRPFNFPRP | -0.771 |
| RRIRCRPPRLPRPRPRPAHEPRP | 0.238 |
| RRIRMRPPRLPRPRPRPVAQPRP | 0.963 |
| RRIRERPPRLPRPRPRPPVFPRP | -0.152 |
| RRIRFRPPRLPRPRPRPENFPRP | 0.0164 |
| RRIRLRPPRLPRPRPRPSLNPRP | -0.625 |
| RRIRHRPPRLPRPRPRPGEEPRP | 0.03 |
| RRIRHRPPRLPRPRPRPQPMPRP | -0.109 |
| RRIRKRPPRLPRPRPRPKTCPRP | 0.209 |
| RRIRGRPPRLPRPRPRPGNYPRP | -0.0899 |
| RRIRTRPPRLPRPRPRPHHEPRP | -0.103 |
| RRIRWRPPRLPRPRPRPVPSPRP | 0.058 |
| RRIRFRPPRLPRPRPRPMTRPRP | -0.173 |
| RRIRKRPPRLPRPRPRPHQLPRP | 0.0824 |
| RRIRLRPPRLPRPRPRPVDLPRP | -0.418 |
| RRIRERPPRLPRPRPRPHVHPRP | -0.315 |
| RRIRERPPRLPRPRPRPFHRPRP | -0.182 |
| RRIRCRPPRLPRPRPRPDCDPRP | -0.812 |
| RRIRNRPPRLPRPRPRPYSGPRP | 0.00884 |

| Sequence | shrunken log2 fold change |
| --- | --- |
| RRIRPRPPRLPRPRPRPIGKPRP | -0.156 |
| RRIRYRPPRLPRPRPRPWIMPRP | -0.253 |
| RRIRTRPPRLPRPRPRPHYDPRP | -0.302 |
| RRIRPRPPRLPRPRPRPPSKPRP | 0.105 |
| RRIRFRPPRLPRPRPRPLEWPRP | 0.0696 |
| RRIRARPPRLPRPRPRPDWWPRP | 0.608 |
| RRIRMRPPRLPRPRPRPNVIPRP | -0.117 |
| RRIRRRPPRLPRPRPRPLYSPRP | -0.0185 |
| RRIRIRPPRLPRPRPRPNHIPRP | -1.16 |
| RRIRKRPPRLPRPRPRPRHEPRP | -0.115 |
| RRIRERPPRLPRPRPRPNAMPRP | 0.0107 |
| RRIRSRPPRLPRPRPRPFHNPRP | -0.0339 |
| RRIRSRPPRLPRPRPRPHPSPRP | 0.0251 |
| RRIRERPPRLPRPRPRPENHPRP | -0.455 |
| RRIRMRPPRLPRPRPRPKCSPRP | -0.0186 |
| RRIRERPPRLPRPRPRPCRPPRP | -0.00126 |
| RRIRKRPPRLPRPRPRPGWTPRP | 0.438 |
| RRIRCRPPRLPRPRPRPLDGPRP | -0.151 |
| RRIRMRPPRLPRPRPRPNSEPRP | 0.128 |
| RRIRCRPPRLPRPRPRPGVLPRP | 0.121 |
| RRIRVRPPRLPRPRPRPMTNPRP | -0.256 |
| RRIRDRPPRLPRPRPRPNLDPRP | -0.103 |
| RRIRPRPPRLPRPRPRPEDLPRP | 0.0558 |
| RRIRMRPPRLPRPRPRPDRDPRP | 0.353 |
| RRIRLRPPRLPRPRPRPESFPRP | 0.0256 |
